Measured values reported in patent US20200308292A1 (ARMAGEN TECHNOLOGIES, published 2020).

B1: chimeric HIRMAb (monoclonal antibody to the human insulin receptor) (antibody, human IgG1, kappa)
heavy: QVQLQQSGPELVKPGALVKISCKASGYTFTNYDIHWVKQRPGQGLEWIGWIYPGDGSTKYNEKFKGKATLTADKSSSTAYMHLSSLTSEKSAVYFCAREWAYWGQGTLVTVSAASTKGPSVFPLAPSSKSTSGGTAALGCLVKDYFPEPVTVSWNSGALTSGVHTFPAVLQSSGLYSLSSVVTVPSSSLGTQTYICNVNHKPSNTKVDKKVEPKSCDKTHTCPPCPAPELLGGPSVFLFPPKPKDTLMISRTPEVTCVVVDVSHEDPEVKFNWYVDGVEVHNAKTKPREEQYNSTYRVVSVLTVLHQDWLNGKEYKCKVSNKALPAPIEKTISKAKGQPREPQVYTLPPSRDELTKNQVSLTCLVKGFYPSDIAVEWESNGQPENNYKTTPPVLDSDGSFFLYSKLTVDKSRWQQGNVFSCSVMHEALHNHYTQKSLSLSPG
light: DIQMTQSPSSLSASLGERVSLTCRASQDIGGNLYWLQQGPDGTIKRLIYATSSLDSGVPKRFSGSRSGSDYSLTISSLESEDFVDYYCLQYSSSPWTFGGGTKMEIKRTVAAPSVFIFPPSDEQLKSGTASVVCLLNNFYPREAKVQWKVDNALQSGNSQESVTEQDSKDSTYSLSSTLTLSKADYEKHKVYACEVTHQGLSSPVTKSFNRGEC
notes: Its tie to the tested chimeric HIRMAb is indirect; MW 150 kDa; also called HIR Ab; chimeric HIR Ab
B2: HIRMAb-SGSH fusion protein (antibody, human IgG1, kappa)
heavy: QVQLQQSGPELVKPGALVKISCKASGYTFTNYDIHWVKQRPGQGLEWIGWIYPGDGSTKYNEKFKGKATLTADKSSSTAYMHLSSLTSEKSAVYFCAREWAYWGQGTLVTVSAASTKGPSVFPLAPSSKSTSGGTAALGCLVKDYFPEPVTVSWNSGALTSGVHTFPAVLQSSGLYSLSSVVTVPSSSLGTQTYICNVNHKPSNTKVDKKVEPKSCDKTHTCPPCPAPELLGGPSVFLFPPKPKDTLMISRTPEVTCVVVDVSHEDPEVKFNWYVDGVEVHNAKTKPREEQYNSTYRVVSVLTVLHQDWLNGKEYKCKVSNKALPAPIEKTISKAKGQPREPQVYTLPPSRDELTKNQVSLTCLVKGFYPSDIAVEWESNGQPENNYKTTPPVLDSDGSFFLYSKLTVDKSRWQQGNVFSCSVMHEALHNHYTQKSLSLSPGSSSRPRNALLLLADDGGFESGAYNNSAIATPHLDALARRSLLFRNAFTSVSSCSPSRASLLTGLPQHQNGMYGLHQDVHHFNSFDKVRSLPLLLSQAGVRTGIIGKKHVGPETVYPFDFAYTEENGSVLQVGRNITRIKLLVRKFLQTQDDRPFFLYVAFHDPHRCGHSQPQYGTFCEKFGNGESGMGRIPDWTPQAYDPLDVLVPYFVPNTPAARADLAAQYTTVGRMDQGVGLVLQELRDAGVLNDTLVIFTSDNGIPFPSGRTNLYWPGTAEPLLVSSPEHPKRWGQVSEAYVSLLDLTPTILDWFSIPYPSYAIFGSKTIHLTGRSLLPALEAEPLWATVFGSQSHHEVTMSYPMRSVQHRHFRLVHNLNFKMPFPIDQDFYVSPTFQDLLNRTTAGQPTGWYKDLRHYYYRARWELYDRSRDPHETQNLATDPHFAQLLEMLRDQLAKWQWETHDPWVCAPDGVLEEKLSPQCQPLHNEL
light: B1 light
modifications: Cys-514 of SEQ ID NO 10 undergoes post-translational conversion to formylglycine (inferred by the filing from retained enzyme activity)
notes: IgG-enzyme fusion, hetero-tetramer, CHO-derived, estimated MW 325 kDa; also called HIR Ab-SGSH fusion protein; HIR Ab-SGSH fusion antibody

Key:
[1] = molecular target: T1, human insulin receptor extracellular domain (HIR ECD) (human, UniProt P06213 28-956, limits assumed); experiment: ELISA, HIR ECD plated, biotinylated anti-human IgG detection
T1 construct: extracellular domain
Description: (§1) The affinity of the fusion protein for the HIR extracellular domain (ECD) was determined with an ELISA. CHO cells permanently transfected with the HIR ECD were grown in serum free media (SFM), and the HIR ECD was purified with a wheat germ agglutinin affinity column, as previously described in Coloma et al. (2000) Pharm Res, 17:266-274. The HIR ECD was plated on Nunc-Maxisorb 96 well dishes and the binding of the HIR Ab, or the HIR Ab-SGSH fusion protein, to the HIR ECD was detected with a biotinylated goat anti-human IgG (H+L) secondary antibody, followed by avidin and biotinylated peroxidase (Vector Labs, Burlingame, Calif.). […] The MW of the HIR Ab is 150 kDa, and the MW of the HIR Ab-SGSH fusion protein is 325 kDa.

[2] = molecular target: T1, human insulin receptor extracellular …; experiment: ELISA, HIR ECD plated; after normalization for MW (150 kDa)
Description: as §1

[3] = molecular target: T1, human insulin receptor extracellular …; experiment: ELISA, HIR ECD plated; after normalization for MW (325 kDa)
Description: as §1

Binder	EC50 [1] [µg/mL]	EC50 [2] [nM]	EC50 [3] [nM]
B1	0.029	0.19	–
B2	0.107	–	0.33
